According to patent publication US20070219139A1 (POSCO, published 2007):
Where no end group is shown, it is not given here. [ ]: non-standard residue; d: D form.

B1: Trp-Arg-Tyr-Met-Val-D-Met-NH2 (peptide)
peptide: WRYMV[dM]-NH2
modifications: N-terminus assumed
SMILES: CSCC[C@H](NC(=O)[C@H](Cc1ccc(O)cc1)NC(=O)[C@H](CCCNC(=N)N)NC(=O)[C@@H](N)Cc1c[nH]c2ccccc12)C(=O)N[C@H](C(=O)N[C@H](CCSC)C(N)=O)C(C)C
B2: Trp-His-Tyr-Met-Val-D-Met-NH2 (peptide)
peptide: WHYMV[dM]-NH2
modifications: N-terminus assumed
SMILES: CSCC[C@H](NC(=O)[C@H](Cc1ccc(O)cc1)NC(=O)[C@H](Cc1c[nH]cn1)NC(=O)[C@@H](N)Cc1c[nH]c2ccccc12)C(=O)N[C@H](C(=O)N[C@H](CCSC)C(N)=O)C(C)C
B3: Trp-Lys-Arg-Met-Val-D-Met-NH2 (peptide)
peptide: WKRMV[dM]-NH2
modifications: N-terminus assumed
SMILES: CSCC[C@H](NC(=O)[C@H](CCCNC(=N)N)NC(=O)[C@H](CCCCN)NC(=O)[C@@H](N)Cc1c[nH]c2ccccc12)C(=O)N[C@H](C(=O)N[C@H](CCSC)C(N)=O)C(C)C
B4: Trp-Lys-Gly-Met-Val-D-Met-NH2 (peptide)
peptide: WKGMV[dM]-NH2
modifications: N-terminus assumed
SMILES: CSCC[C@H](NC(=O)CNC(=O)[C@H](CCCCN)NC(=O)[C@@H](N)Cc1c[nH]c2ccccc12)C(=O)N[C@H](C(=O)N[C@H](CCSC)C(N)=O)C(C)C
B5: Trp-Lys-Glu-Met-Val-D-Met-NH2 (peptide)
peptide: WKEMV[dM]-NH2
modifications: N-terminus assumed
SMILES: CSCC[C@H](NC(=O)[C@H](CCC(=O)O)NC(=O)[C@H](CCCCN)NC(=O)[C@@H](N)Cc1c[nH]c2ccccc12)C(=O)N[C@H](C(=O)N[C@H](CCSC)C(N)=O)C(C)C
B6: Trp-Asp-Tyr-Met-Val-D-Met-NH2 (peptide)
peptide: WDYMV[dM]-NH2
modifications: N-terminus assumed
SMILES: CSCC[C@H](NC(=O)[C@H](Cc1ccc(O)cc1)NC(=O)[C@H](CC(=O)O)NC(=O)[C@@H](N)Cc1c[nH]c2ccccc12)C(=O)N[C@H](C(=O)N[C@H](CCSC)C(N)=O)C(C)C
B7: Met-Val-D-Met-NH2 (peptide)
peptide: Met-Val-[dM]-NH2
modifications: N-terminus assumed
SMILES: CSCC[C@H](N)C(=O)N[C@H](C(=O)N[C@H](CCSC)C(N)=O)C(C)C
B8: Trp-Lys-Trp-Met-Val-D-Met-NH2 (peptide)
peptide: WKWMV[dM]-NH2
modifications: N-terminus assumed
SMILES: CSCC[C@H](NC(=O)[C@H](Cc1c[nH]c2ccccc12)NC(=O)[C@H](CCCCN)NC(=O)[C@@H](N)Cc1c[nH]c2ccccc12)C(=O)N[C@H](C(=O)N[C@H](CCSC)C(N)=O)C(C)C
B9: Trp-Glu-Tyr-Met-Val-D-Met-NH2 (peptide)
peptide: WEYMV[dM]-NH2
modifications: N-terminus assumed
SMILES: CSCC[C@H](NC(=O)[C@H](Cc1ccc(O)cc1)NC(=O)[C@H](CCC(=O)O)NC(=O)[C@@H](N)Cc1c[nH]c2ccccc12)C(=O)N[C@H](C(=O)N[C@H](CCSC)C(N)=O)C(C)C
B10: Trp-Lys-Phe-Met-Val-D-Met-NH2 (peptide)
peptide: WKFMV[dM]-NH2
modifications: N-terminus assumed
SMILES: CSCC[C@H](NC(=O)[C@H](Cc1ccccc1)NC(=O)[C@H](CCCCN)NC(=O)[C@@H](N)Cc1c[nH]c2ccccc12)C(=O)N[C@H](C(=O)N[C@H](CCSC)C(N)=O)C(C)C
B11: Trp-Lys-Tyr-Met-Gly-D-Met-NH2 (peptide)
peptide: WKYMG[dM]-NH2
modifications: N-terminus assumed
SMILES: CSCC[C@H](NC(=O)[C@H](Cc1ccc(O)cc1)NC(=O)[C@H](CCCCN)NC(=O)[C@@H](N)Cc1c[nH]c2ccccc12)C(=O)NCC(=O)N[C@H](CCSC)C(N)=O
B12: Trp-Lys-Asp-Met-Val-D-Met-NH2 (peptide)
peptide: WKDMV[dM]-NH2
modifications: N-terminus assumed
SMILES: CSCC[C@H](NC(=O)[C@H](CC(=O)O)NC(=O)[C@H](CCCCN)NC(=O)[C@@H](N)Cc1c[nH]c2ccccc12)C(=O)N[C@H](C(=O)N[C@H](CCSC)C(N)=O)C(C)C
B13: Trp-Lys-Tyr-Met-Tyr-D-Met-NH2 (peptide)
peptide: WKYMY[dM]-NH2
modifications: N-terminus assumed
SMILES: CSCC[C@H](NC(=O)[C@H](Cc1ccc(O)cc1)NC(=O)[C@H](CCCCN)NC(=O)[C@@H](N)Cc1c[nH]c2ccccc12)C(=O)N[C@@H](Cc1ccc(O)cc1)C(=O)N[C@H](CCSC)C(N)=O
B14: Trp-Lys-His-Met-Val-D-Met-NH2 (peptide)
peptide: WKHMV[dM]-NH2
modifications: N-terminus assumed
SMILES: CSCC[C@H](NC(=O)[C@H](Cc1c[nH]cn1)NC(=O)[C@H](CCCCN)NC(=O)[C@@H](N)Cc1c[nH]c2ccccc12)C(=O)N[C@H](C(=O)N[C@H](CCSC)C(N)=O)C(C)C

Assays:
Assay in all cases: cell-based or functional assay
[1] = target: T1, formyl peptide receptor-like 1 (UniProt P25090 1-351, limits assumed)
T1 sequence (looked up): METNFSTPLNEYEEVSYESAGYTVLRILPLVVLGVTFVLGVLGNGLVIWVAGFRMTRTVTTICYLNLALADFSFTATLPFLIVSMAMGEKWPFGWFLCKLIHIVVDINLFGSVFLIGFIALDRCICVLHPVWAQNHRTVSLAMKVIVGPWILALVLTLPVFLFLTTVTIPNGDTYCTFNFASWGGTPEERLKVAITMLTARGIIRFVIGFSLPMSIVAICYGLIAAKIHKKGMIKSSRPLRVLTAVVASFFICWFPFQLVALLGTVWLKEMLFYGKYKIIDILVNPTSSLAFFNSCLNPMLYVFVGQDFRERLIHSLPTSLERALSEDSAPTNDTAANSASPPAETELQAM

[2] = target: T2, formyl peptide receptor (UniProt P21462 1-350, limits assumed)
T2 sequence (looked up): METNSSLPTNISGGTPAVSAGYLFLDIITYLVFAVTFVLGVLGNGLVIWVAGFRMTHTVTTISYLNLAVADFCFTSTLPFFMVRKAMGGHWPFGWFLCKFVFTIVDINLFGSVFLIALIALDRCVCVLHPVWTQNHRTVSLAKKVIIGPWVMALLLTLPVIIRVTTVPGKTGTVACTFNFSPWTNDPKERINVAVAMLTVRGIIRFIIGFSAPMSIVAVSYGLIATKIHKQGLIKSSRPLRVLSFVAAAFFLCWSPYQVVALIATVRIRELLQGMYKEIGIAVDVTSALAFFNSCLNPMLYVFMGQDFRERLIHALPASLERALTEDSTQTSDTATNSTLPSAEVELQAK

[3] = target: T2, formyl peptide receptor; remark: listed apart in the source

Binder | EC50 of intracellular calcium increase in FPRL1-expressing RBL-2H3 cells (fura-2) [1] [nM] | EC50 of intracellular calcium increase in FPR-expressing RBL-2H3 cells (fura-2) [2] [nM] | [Ca^2+]i increase in FPR-expressing RBL-2H3 cells [3] [µM]
B1 | 0.12 | 54.9 | 
B2 | 0.72 | 31.7 | 
KYMV-NH2 [Lys-Tyr-Met-Val-NH2] | > 30000 |  | 
B3 | 2.06 |  | 
WKYMVR-NH2 [Trp-Lys-Tyr-Met-Val-Arg-NH2] | 178 |  | > 20
B4 | 21.3 |  | > 20
WKYMVE-NH2 [Trp-Lys-Tyr-Met-Val-Glu-NH2] | 503 |  | > 20
B5 | 28.3 | 1330 | 
B6 | 14.3 | 98.9 | 
WKYMVG-NH2 [Trp-Lys-Tyr-Met-Val-Gly-NH2] | 5950 |  | > 20
WKYMV-NH2 [Trp-Lys-Tyr-Met-Val-NH2] | 918 |  | 
B7 | > 30000 |  | 
B8 | 0.16 | 18.8 | 
B9 | 5.23 | 317 | 
B10 | 0.23 | 17.7 | 
WKYMVW-NH2 [Trp-Lys-Tyr-Met-Val-Trp-NH2] | 194 |  | > 20
YMV[dM]-NH2 [Tyr-Met-Val-D-Met-NH2] | 17.1 | 569 | 
B11 | 18.1 |  | > 20
B12 | 8.73 | 1330 | 
WKYMVV-NH2 [Trp-Lys-Tyr-Met-Val-Val-NH2] | 1260 |  | > 20
B13 | 0.29 | 665 | 
B14 | 1.94 | 280 | 
